Results published in paper PMC5458078, “Global mapping of CARM1 substrates defines enzyme specificity and substrate recognition” (Nature Communications, 2017).
Read-outs that look alike come from different tables or passages of the source.

Columns and labels:
HEK293T cells = assay: Western blot of FLAG-tagged TET2 with ADMA antibodies, wild type vs CARM1 KO; format: cell-based
Method: TET2, methylcytosine dioxygenase with a prominent role in DNA demethylation frequently mutated in various human cancers, was identified among novel CARM1 substrates. To assure its correct identification, we probed FLAG-tagged TET2 with ADMA antibody in wild type and CARM1 KO HEK293T cells (Fig. 2c).
(§1) Cells were collected by trypsinization, washed with Dulbecco's phosphate buffer saline (Life Technologies, Carlsbad, CA) and lysed by suspension in lysis buffer (50 mM Tris-HCl pH 8.0, 150 mM NaCl, 10% glycerol, 0.5% Triton X-100 and 1 × protease inhibitor cocktail (Sigma-Aldrich)). After brief sonication followed by centrifugation, total protein was quantified using the BioRad Protein Assay (BioRad, Hercules, CA), and 20 μg protein was resolved by SDS–PAGE. Proteins were transferred to a nitrocellulose membrane for 1.5 h at 350 mA. Membranes were blocked with 5% nonfat milk at room temperature for 1 h and incubated overnight with diluted primary antibody at 4 °C. Membranes were then washed and incubated with HRP-conjugated secondary antibody for 1 h at room temperature. Signal was visualized by enhanced chemiluminescence reagents (Thermo Scientific, Rockford, IL) and X-ray film exposure followed by scanning and digitalization. Me-PABP1 and PABP1 antibodies, me-BAF155 antibody[20] and me-MED12 antibody[30] were generated previously in the Xu lab. […]

histone substrate = conditions: cited from earlier work
Description: page 18: We agree with the reviewer’s assertion that proteomic experiments generally suffer from the abundance bias. However, we, and others, argue that analyses of post-translational modifications are less affected by this issue, as the immunoprecipitation and other methods of PTM enrichment rely on the abundance of the PTM itself, not the protein that bears it, i.e., a strongly modified low abundance protein is as likely to be pulled down as a lowly modified high abundance protein.

MCF7 cells = assay: Quantitative nanoLC-MS/MS (TMT) of ADMA-containing peptides, CARM1 KO vs parental; format: cell-based, human; parameters: Fold change KO/WT: scale not given here; conditions: MCF7, CARM1 knockout vs wild type, n = 3 each
MCF7 CARM1 KO cells = assay: Quantitative MS of ADMA-containing peptides in MCF7 CARM1 KO cells expressing CARM1 28-608 or CARM1 140-608, and in CARM1 KO; format: cell-based, human
HEK293T CARM1 KO cells [1] = assay: Rescue of endogenous BAF155 and MED12 methylation, transient transfection, western blot; format: cell-based; conditions: transient expression in HEK293T CARM1 KO cells
Method: (§2) Next, we transiently transfected FL and the two aforementioned CARM1 truncations in HEK293T CARM1 KO cells and measured substrate methylation by western blotting with ADMA antibodies.
Cells were collected by trypsinization, washed with Dulbecco's phosphate buffer saline (Life Technologies, Carlsbad, CA) and lysed by suspension in lysis buffer (50 mM Tris-HCl pH 8.0, 150 mM NaCl, 10% glycerol, 0.5% Triton X-100 and 1 × protease inhibitor cocktail (Sigma-Aldrich)). After brief sonication followed by centrifugation, total protein was quantified using the BioRad Protein Assay (BioRad, Hercules, CA), and 20 μg protein was resolved by SDS–PAGE. Proteins were transferred to a nitrocellulose membrane for 1.5 h at 350 mA. Membranes were blocked with 5% nonfat milk at room temperature for 1 h and incubated overnight with diluted primary antibody at 4 °C. Membranes were then washed and incubated with HRP-conjugated secondary antibody for 1 h at room temperature. Signal was visualized by enhanced chemiluminescence reagents (Thermo Scientific, Rockford, IL) and X-ray film exposure followed by scanning and digitalization. Me-PABP1 and PABP1 antibodies, me-BAF155 antibody[20] and me-MED12 antibody[30] were generated previously in the Xu lab. FLAG antibody (catalogue #F7425) was purchased from Sigma and used at a dilution of 1:5,000; BAF155 antibody (sc-10756) was purchased from Santa Cruz and used at a dilution of 1:1,000; MED12 antibody (ab70842) was purchased from Abcam (Cambridge, MA) and used at 1:1,000 dilution.

HEK293T CARM1 KO cells [2] = assay: Total ADMA levels after transient transfection, western blot; format: cell-based; conditions: transient expression in HEK293T CARM1 KO cells
Method: as §2, §1

[3] = system: BAF155, MED12, PABP1, NCOA3 and TET2; assay: Co-immunoprecipitation of BAF155, MED12, PABP1, NCOA3 and TET2 with FLAG-tagged CARM1, western blot; format: cell-based; conditions: FLAG-tagged construct transiently transfected in HEK293T CARM1 KO cells; anti-FLAG IP
Description: The structure of the N-terminal domain of CARM1 (residues 28–140) resembles those of the EVH1 domains, a subfamily of PH domains that bind proline-rich sequences. With our discovery that CARM1 substrates contain proline-rich motifs, we posited that the protein's N-terminal domain may be required for substrate recognition. To test this hypothesis, we generated three CARM1 constructs: one full-length (CARM1 FL) and two N-terminal truncations CARM1 28–608 and CARM1 140–608 (Fig. 3a). […] We transiently transfected the three FLAG-tagged CARM1 fusion constructs in HEK293T CARM1 KO cells. CARM1 was immunoprecipitated from all three cell lines using anti-FLAG M2 resin, and four known CARM1 substrates/interactors (that is, BAF155 (ref. [20]), MED12 (ref. [30]), PABP1 (ref. [36]) and NCOA3 (ref. [19])) and newly identified TET2 were detected by western blotting. […] To globally assess the magnitude of reduction in CARM1–substrate interactions induced by the loss of the EVH1 domain, we visualized overall protein changes in CARM1 immunoprecipitates by western blotting using the ADMA antibody (Fig. 3c).
as §1, with “digitalization.” for “digitalization. Me-PABP1 and PABP1 antibodies, me-BAF155 antibody[20] and me-MED12 antibody[30] were generated previously in the Xu lab.”

[4] = system: recombinant full-length BAF155 protein; assay: In vitro methylation of full-length FLAG-BAF155 by recombinant CARM1 proteins, autoradiography; format: biochemical; conditions: 3H-SAM, 50 mM Tris-HCl pH 8.0, 100 mM NaCl, 0.5 mM EDTA, 1–4 h, 30 °C
Method: The FL and N-terminal domain-deleted version of human CARM1 cDNAs, and other PRMT FL cDNAs were cloned into pFN21K Halo Tag CMV Flexi mammalian expression vector (Promega, Madison, WI) using the unique Sgfl and Pmel site[55]. To express the protein, DNA constructs were transiently transfected into HEK293T CARM1 KO cells in 15 cm dishes using transIT-LT1 reagent (Mirus Bio, Madison, WI) according to the manufacturer's protocol. Proteins were allowed to express for 48 h. Cell pellets were then collected and lysed in lysis buffer (50 mM HEPES, pH 7.5, 150 mM NaCl, 0.005% NP-40, 0.5 mM EDTA, supplemented with 1 × protease inhibitor cocktail before use). The cells were sonicated on ice using a Branson Sonifier 450 with a microtip at 35% amplitude (10 s on, 30 s off, 6 cycles). […] The resin was centrifuged at 3,000 r.p.m. for 5 min, and the supernatant containing the cleaved protein was collected and protein concentration was determined using the Bradford assay (Thermo Scientific, Rockford, IL). Protein purity was assessed by running SDS–PAGE and Coomassie Blue staining.
CMX-Flag-BAF155 construct was generated by subcloning a PCR-amplified Flag-BAF155 fragment into the CMX-expression vector. […] Protein concentration was determined using Bradford assay and protein purity was assessed by SDS–PAGE and Coomassie Blue staining. […]

[5] = ratio on log2 scale, mean of 3 replicates

## TET2: FLAG-tagged TET2, methylcytosine dioxygenase
HEK293T cells
  ADMA modification of TET2 in the absence of CARM1: complete disappearance of ADMA modification on TET2

## PRMT1: protein arginine methyltransferase 1
Histone substrate; PRMT1, histone substrate, ref Pak et al., Biochem 2011
  Km: 4.2 µM

## VPrFSSLSSCNPPAMATSAEK
MCF7 cells
  Fold change KO/WT: -1.804
MCF7 CARM1 KO cells; mean, CARM1 140-608 versus WT (log2 scale)
  CARM1 140-608/WT: -1.357
MCF7 CARM1 KO cells; mean, CARM1 KO versus WT (log2 scale)
  KO/WT: -1.804

## LLFQNLWKPrLNVP
MCF7 cells
  Fold change KO/WT: -4.157
MCF7 CARM1 KO cells; [5]
  CARM1 140-608/WT: -1.893
  KO/WT: -4.858

B1: CARM1 28–608: CARM1 28–608 lacks the first, unstructured 28 residues (protein)
chain: TVSVFPGARLLTIGDANGEIQRHAEQQALRLEVRAGPDSAGIALYSHEDVCVFKCSVSRETECSRVGKQSFIITLGCNSVLIQFATPNDFCSFYNILKTCRGHTLERSVFSERTEESSAVQYFQFYGYLSQQQNMMQDYVRTGTYQRAILQNHTDFKDKIVLDVGCGSGILSFFAAQAGARKIYAVEASTMAQHAEVLVKSNNLTDRIVVIPGKVEEVSLPEQVDIIISEPMGYMLFNERMLESYLHAKKYLKPSGNMFPTIGDVHLAPFTDEQLYMEQFTKANFWYQPSFHGVDLSALRGAAVDEYFRQPVVDTFDIRILMAKSVKYTVNFLEAKEGDLHRIEIPFKFHMLHSGLVHGLAFWFDVAFIGSIMTVWLSTAPTEPLTHWYQVRCLFQSPLFAKAGDTLSGTCLLIANKRQSYDISIVAQVDQTGSKSSNLLDLKNPFFRYTGTTPSPPPGSHYTSPSENMWNTGSTYNLSSGMAVAGMPTAYDLSSVIASGSSVGHNNLIPLANTGIVNHTHSRMGSIMSTGIVQGSSGAQGSGGGSTSAHYAVNSQFTMGGPAISMASPMSIPTNTMHYGS
modifications: left off: FLAG, end not stated, kept
notes: CARM1 28–608 lacks the first, unstructured 28 residues
HEK293T CARM1 KO cells [1]
  Methylation of endogenous BAF155 and MED12: methylation of endogenous BAF155 and MED12 was restored
HEK293T CARM1 KO cells [2]
  Total levels of ADMA modification: recovered to the level of parental cells
[3]
  Co-precipitation of BAF155, MED12, PABP1, NCOA3 and TET2: all five proteins were co-precipitated
[4]
  Methylation of full-length BAF155: methylated recombinant full-length BAF155 protein

B2: CARM1: coactivator-associated arginine methyltransferase 1 (protein)
chain: MAAAAAAVGPGAGGAGSAVPGGAGPCATVSVFPGARLLTIGDANGEIQRHAEQQALRLEVRAGPDSAGIALYSHEDVCVFKCSVSRETECSRVGKQSFIITLGCNSVLIQFATPNDFCSFYNILKTCRGHTLERSVFSERTEESSAVQYFQFYGYLSQQQNMMQDYVRTGTYQRAILQNHTDFKDKIVLDVGCGSGILSFFAAQAGARKIYAVEASTMAQHAEVLVKSNNLTDRIVVIPGKVEEVSLPEQVDIIISEPMGYMLFNERMLESYLHAKKYLKPSGNMFPTIGDVHLAPFTDEQLYMEQFTKANFWYQPSFHGVDLSALRGAAVDEYFRQPVVDTFDIRILMAKSVKYTVNFLEAKEGDLHRIEIPFKFHMLHSGLVHGLAFWFDVAFIGSIMTVWLSTAPTEPLTHWYQVRCLFQSPLFAKAGDTLSGTCLLIANKRQSYDISIVAQVDQTGSKSSNLLDLKNPFFRYTGTTPSPPPGSHYTSPSENMWNTGSTYNLSSGMAVAGMPTAYDLSSVIASGSSVGHNNLIPLANTGIVNHTHSRMGSIMSTGIVQGSSGAQGSGGGSTSAHYAVNSQFTMGGPAISMASPMSIPTNTMHYGS
modifications: left off: FLAG, end not stated, kept
Histone substrate; CARM1, natural histone substrate, ref Jacques et al., 2016
  Km: 0.15 µM

B3: CARM1 FL: full-length CARM1, contained 608 residues (protein)
chain: B2 chain
modifications: left off: FLAG, end not stated, kept
notes: full-length CARM1, contained 608 residues
HEK293T CARM1 KO cells [1]
  Methylation of endogenous BAF155 and MED12: methylation of endogenous BAF155 and MED12 was restored
HEK293T CARM1 KO cells [2]
  Total levels of ADMA modification: recovered to the level of parental cells
[3]
  Co-precipitation of BAF155, MED12, PABP1, NCOA3 and TET2: all five proteins were co-precipitated
[4]
  Methylation of full-length BAF155: methylated recombinant full-length BAF155 protein
